The values below come from patent US20140141011A1 (SCHERING, published 2014).

Several values for one entry are separate records, joined by “and”; a condition that tells them apart may be missing. Identical values can stand only once.

Test [1] has as its target T1, Recombinant human TSLP, expressed in HEK293 (human, UniProt Q969D9 29-159).
T1 construct: also called human TSLP HEK293; HEK293-B (biotinylated)
The test is described as follows: ELISA, TSLP coated on plate, antibody titrated; HEK293-B (biotinylated TSLP). For orientation: ELISA stands for enzyme-linked immunosorbent assay.

For test [2], the target named is T2, Recombinant human TSLP, expressed in E. coli (human, UniProt Q969D9 29-159).
T2 construct: also called human TSLP E. coli; E. coli-B (biotinylated)
The test is described as follows: KinExA, solution equilibrium, beads coated with biotinylated human TSLP; TSLP from E. coli. For orientation: In KinExA the mixture passes briefly over coated beads that capture the unbound partner.

The target in test [3] is T2, Recombinant human TSLP, expressed in E. …. The test is described as follows: ELISA, TSLP coated on plate, antibody titrated; E. coli-B (biotinylated TSLP).
Test [4] has as its target T1, Recombinant human TSLP, expressed in …. In words: ELISA, TSLP coated on plate, antibody titrated; HEK293.
For test [5], the target named is T3, Human TSLP (expression host not stated) (human, UniProt Q969D9 29-159).
T3 construct: also called huTSLP; hu TSLP
The test is described as follows: SPR, BIAcore T100, TSLP amine-coupled to CM5 chip, antibody injected, bivalent analyte model. For orientation: Surface plasmon resonance follows binding to a sensor surface in real time, without labels.

The target of test [6] is T4, Cynomolgus monkey TSLP (cynomolgus monkey, UniProt A0A7N9CAT7 29-159).
T4 construct: also called cyno TSLP; cynoTSLP
Described as above.

The target of test [7] is T1, Recombinant human TSLP, expressed in …. In words: ELISA, mean of the 3 rows above (HEK293-B, HEK293, HEK293-F); mean of n = 3: HEK293-B, HEK293 and HEK293-F human TSLP.
The target of test [8] is T2, Recombinant human TSLP, expressed in E. …. The test is described as follows: KinExA, solution equilibrium, beads coated with biotinylated human TSLP; antigen R&D Systems 1398-TS; KinExA, not BIAcore.
Test [9] has as its target T3, Human TSLP (expression host not stated, …). The test is described as follows: ELISA, mean of all 5 rows on human TSLP (HEK293 and E. coli pooled).
For test [10], the target named is T2, Recombinant human TSLP, expressed in E. …. The test is described as follows: cell-based or functional assay.
In test [11] the target is T1, Recombinant human TSLP, expressed in …. The test is described as follows: cell-based or functional assay.
The target in test [12] is T4, Cynomolgus monkey TSLP. In words: cell-based or functional assay.
Test [13] has as its target T1, Recombinant human TSLP, expressed in …. In words: KinExA, solution equilibrium, beads coated with biotinylated human TSLP; TSLP from HEK293.
The target of test [14] is T3, Human TSLP (expression host not stated, …). In words: SPR, BIAcore T100, as in Example 5 (TSLP immobilized).
Test [15] deals with T4, Cynomolgus monkey TSLP. The description is as above.
Test [16] has as its target T3, Human TSLP (expression host not stated, …). In words: cell-based or functional assay.
Test [17] concerns the target T2, Recombinant human TSLP, expressed in E. …. In words: ELISA, mean of the 7 rows above (E. coli, including E. coli-B).
For test [18], the target named is T1, Recombinant human TSLP, expressed in …. In words: ELISA, mean of the 12 rows above (HEK293, including HEK293-B and HEK293-F).
The target of test [19] is T4, Cynomolgus monkey TSLP. The test is described as follows: ELISA, mean of the 6 rows above (cyno TSLP from HEK293).
Test [20] deals with T2, Recombinant human TSLP, expressed in E. …. The test is described as follows: ELISA, TSLP coated on plate, antibody titrated; E. coli.
For test [21] the target is unchanged. In words: ELISA, direct coat of 200 ng TSLP instead of 100 ng, antibody titrated; E. coli.
The target in test [22] is T1, Recombinant human TSLP, expressed in …. The test is described as follows: ELISA, direct coat of 200 ng TSLP instead of 100 ng, antibody titrated; HEK293.
The target of test [23] is T3, Human TSLP (expression host not stated, …). In words: ELISA, mean of all 19 rows on human TSLP (HEK293 and E. coli pooled).
The target of test [24] is T2, Recombinant human TSLP, expressed in E. …. In words: KinExA, solution equilibrium, beads coated with biotinylated human TSLP; antigen R&D Systems 1398-TS.
For test [25], the target named is T3, Human TSLP (expression host not stated, …). In words: ELISA, mean of the 5 rows above on human TSLP (HEK293 and E. coli pooled).
For test [26] the target is unchanged. The test is described as follows: summary of Tables 10 and 11 (BIAcore, KinExA, Ba/F3 assay).

B1: Rat anti-human TSLP antibody 23B12 (antibody, V domains shown)
VH: EEKLQQSGDDLVRPGAAVKMSCKASGYIFTDYAMHWVKQRPGQGLEWIGTFIPLLDTSDYNQNFKGRATLTADKSSNTAYMELSRLTSEDSAVYYCARMGVTHSYVMDAWGQGASVTVSS
VL: DIVLTQSPATLSVTPGESVSLSCRASQPISISVHWFQQKSNESPRLLIKFASQSISGIPSRFSGSGSGTDFTLNINRVESEDFSVYYCQQTFSLPYTFGTGTKLELKR
notes: Parental rat monoclonal antibody purified from hybridoma supernatant; the rat constant regions are not (a rat IgG2a isotype control is used beside it; the VL is of the kappa subclass); also called r23B12; rat 23B12
The term EC50 denotes the midpoint of the concentration-response curve. On to B1, for which the EC50 in [1] is 790 pM; in test [3] it was 400 pM and 390 pM; in [4], 370 pM; in test [7], 470 pM; in test [9], 440 pM. In addition, the Kd is 0.47 pM in test [2]; 64 pM in test [5]; 86 pM with Cynomolgus monkey TSLP [6]; 0.47 pM in test [8]; 0.22 pM in [13]; 64 pM and 126 pM and 114 pM in test [14]. Also, the Kd in the test with Cynomolgus monkey TSLP [15] was 86 pM and 112 pM. For the same molecule, the “EC50 (mean of the 8 rows above), inhibition of TSLP-induced proliferation of Ba/F3-TSLPR-IL7Ra cells; TSLP human, E. coli” value in test [10] was determined as 3010 pM. Moreover, in test [11], the “EC50 (mean of the 5 rows above), inhibition of TSLP-induced proliferation of Ba/F3-TSLPR-IL7Ra cells; TSLP human, HEK293” value was found to be 110 pM. The “EC50 (mean of the 4 rows above), inhibition of TSLP-induced proliferation of Ba/F3-TSLPR-IL7Ra cells; TSLP cyno, HEK293” value in the test with Cynomolgus monkey TSLP [12] was 560 pM. The “EC50, inhibition of TSLP-induced proliferation of Ba/F3-TSLPR-IL7Ra cells (Alamar Blue); TSLP cyno, HEK293” value in the test with Cynomolgus monkey TSLP [12] was 450 pM and 420 pM and 610 pM and 770 pM.

B2: Humanized anti hu TSLP mAb 23B12 (VL Y49) (antibody, human IgG1, kappa)
heavy: not shown
light: EIVLTQSPGTLSLSPGERATLSCRASQPISISVHWYQQKPGQAPRLLIYFASQSISGIPDRFSGSGSGTDFTLTISRLEPEDFAVYYCQQTFSLPYTFGQGTKVEIKRTVAAPSVFIFPPSDEQLKSGTASVVCLLNNFYPREAKVQWKVDNALQSGNSQESVTEQDSKDSTYSLSSTLTLSKADYEKHKVYACEVTHQGLSSPVTKSFNRGEC
notes: also called hu23B12(VL Y49); hu23B12
As for B2, the “EC50, inhibition of TSLP-induced proliferation of Ba/F3 transfectants; TSLP hu, TSLPR hu” value (“EC50, inhibition … TSLPR hu” for short) in test [16] is 7600 pM. In addition, the EC50 in [1] was 220 pM; in test [17] it was 70 pM; in test [3], 64 pM and 85 pM; in test [18] it was 140 pM; with Cynomolgus monkey TSLP [19], 310 pM; in test [20] it was 110 pM and 60 pM. The EC50 was 61 pM and 29 pM in test [21]; 73 pM in test [22]; 110 pM in test [23]. Also, the Kd in test [2] was 1.7 pM; in test [5], 111 pM; with Cynomolgus monkey TSLP [6], 132 pM; in [24], 1.7 pM; in test [13] it was 2.1 pM; in [14] it was 111 pM. In the test with Cynomolgus monkey TSLP [15], this molecule showed a Kd of 132 pM.

B3: Humanized anti hu TSLP mAb 23B12 (VL K49) (antibody, human IgG1, kappa, V domains shown)
VH: QVQLVQSGAEVKKPGASVKVSCKASGYIFTDYAMHWVRQAPGQGLEWMGTFIPLLDTSDYNQNFKGRVTMTTDTSTSTAYMELRSLRSDDTAVYYCARMGVTHSYVMDAWGQGTLVTVSS
VL: EIVLTQSPGTLSLSPGERATLSCRASQPISISVHWYQQKPGQAPRLLIKFASQSISGIPDRFSGSGSGTDFTLTISRLEPEDFAVYYCQQTFSLPYTFGQGTKVEIKR
notes: Light chain variant of hu23B12 with K at position 49; human IgG1 / kappa; also called hu23B12(VL K49)
As to B3, the EC50 in test [1] was 120 pM; in [3], 38 pM and 50 pM; in test [4], 34 pM; in test [25] it was 50 pM. In test [13], the Kd is 1 pM.

B4: hu-cy: humanized 23B12 VL/VH on cynomolgus constant domains (antibody)
heavy: QVQLVQSGAEVKKPGASVKVSCKASGYIFTDYAMHWVRQAPGQGLEWMGTFIPLLDTSDYNQNFKGRVTMTTDTSTSTAYMELRSLRSDDTAVYYCARMGVTHSYVMDAWGQGTLVTVSSASTKGPSVFPLAPSSRSTSESTAALGCLVKDYFPEPVTVSWNSGSLTSGVHTFPAVLQSSGLYSLSSVVTVPSSSLGTQTYVCNVNHKPSNTKVDKRVEIKTCGGGSKPPTCPPCPAPELLGGPSVFLFPPKPKDTLMISRTPEVTCVVVDVSQEDPDVKFNWYVNGAEVHHAQTKPRETQYNSTYRVVSVLTVTHQDWLNGKEYTCKVSNKALPAPIQKTISKDKGQPREPQVYTLPPSREELTKNQVSLTCLVKGFYPSDIVVEWESSGQPENTYKTTPPVLDSDGSYFLYSKLTVDKSRWQQGNVFSCSVMHEALHNHYTQKSLSLSPGK
light: EIVLTQSPGTLSLSPGERATLSCRASQPISISVHWYQQKPGQAPRLLIYFASQSISGIPDRFSGSGSGTDFTLTISRLEPEDFAVYYCQQTFSLPYTFGQGTKVEIKRTVAAPSVFIFPPSEDQVKSGTVSVVCLLNNFYPREASVKWKVDGVLKTGNSQESVTEQDSKDNTYSLSSTLTLSSTDYQSHNVYACEVTHQGLSSPVTKSFNRGEC
notes: also called hu-cy23B12; Cynoized anti hTSLP mAb 23B12 (huV-CynoC chimera)
Consider B4, for which, in [16], the “EC50, inhibition … TSLPR hu” value was 5300 pM. The figures for the Kd (in [24]; in test [14]; in the test with Cynomolgus monkey TSLP [15]) were 1.4 pM, 106 pM and 114 pM, respectively.

B5: Cyno-ized anti-human TSLP 23B12 antibody (antibody)
heavy: SQVQLVESGGGVVQPGRSLRLSCAASGYIFTDYAMHWVRQAPGKGLEWVATFIPLLDTSDYNQNFKGRFTISRDNSKNTLYLQMNSLRAEDTAVYYCARMGVTHSYVMDAWGQGTLVTVSSASTKGPSVFPLAPSSRSTSESTAALGCLVKDYFPEPVTVSWNSGSLTSGVHTFPAVLQSSGLYSLSSVVTVPSSSLGTQTYVCNVNHKPSNTKVDKRVEIKTCGGGSKPPTCPPCPAPELLGGPSVFLFPPKPKDTLMISRTPEVTCVVVDVSQEDPDVKFNWYVNGAEVHHAQTKPRETQYNSTYRVVSVLTVTHQDWLNGKEYTCKVSNKALPAPIQKTISKDKGQPREPQVYTLPPSREELTKNQVSLTCLVKGFYPSDIVVEWESSGQPENTYKTTPPVLDSDGSYFLYSKLTVDKSRWQQGNVFSCSVMHEALHNHYTQKSLSLSPGK
light: DIQMTQSPSSLSASVGDRVTITCRASQPISISVHWYQQKPGKAPKLLIYFASQSISGVPSRFSGSGSGTDFTLTISSLQPEDFATYYCQQTFSLPYTFGQGTKVEIKRTVAAPSVFIFPPSEDQVKSGTVSVVCLLNNFYPREASVKWKVDGVLKTGNSQESVTEQDSKDNTYSLSSTLTLSSTDYQSHNVYACEVTHQGLSSPVTKSFNRGEC
notes: Rat 23B12 CDRs on human VL kappa-I / VH-III frameworks fused to cynomolgus IgG constant domains, produced in CHO cells; also called cy23B12; Cynoized anti hTSLP mAb 23B12 (782+MAFA19/781MAFA7)
Take B5: the “EC50, inhibition of TSLP-induced proliferation of Ba/F3 transfectants; TSLP hu, TSLPR cyno” value in [16] is 30 pM and 50 pM. Also, in [26], the “fold reduction in binding against hu23B12” value turned out to be 5 fold and the “fold reduction in binding against parental rat 23B12” value is 10 fold. The Kd in test [24] turned out to be 52 pM. Further, in the test with Cynomolgus monkey TSLP [15], the Kd is 1160 pM and 2510 pM.

B6: cy-hu: cyno-ized 23B12 VL/VH on human constant domains (antibody)
heavy: not shown
light: DIQMTQSPSSLSASVGDRVTITCRASQPISISVHWYQQKPGKAPKLLIYFASQSISGVPSRFSGSGSGTDFTLTISSLQPEDFATYYCQQTFSLPYTFGQGTKVEIKRTVAAPSVFIFPPSDEQLKSGTASVVCLLNNFYPREAKVQWKVDNALQSGNSQESVTEQDSKDSTYSLSSTLTLSKADYEKHKVYACEVTHQGLSSPVTKSFNRGEC
notes: also called cy-hu23B12; Cynoized anti hTSLP mAb 23B12 (782+hIgG1/781hukappa)
With B6, the “EC50, inhibition … TSLPR hu” value in [16] turned out to be 3900 pM. The Kd in test [24] was found to be 63 pM; in test [14], 556 pM; in the test with Cynomolgus monkey TSLP [15] it was 1200 pM.
